Results on three molecules are retold here after US6790444.

In assay [1] the target is T1, human lymphotoxin (TNFβ) (human, UniProt P01374 35-205, limits assumed).
T1 sequence (looked up): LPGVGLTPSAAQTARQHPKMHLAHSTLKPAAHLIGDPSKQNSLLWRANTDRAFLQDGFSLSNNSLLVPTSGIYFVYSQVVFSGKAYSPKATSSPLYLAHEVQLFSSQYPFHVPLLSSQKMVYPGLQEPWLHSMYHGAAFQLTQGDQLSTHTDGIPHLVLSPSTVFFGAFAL
As to the kind of experiment: cell-based or functional assay.

The target of assay [2] is human tumor necrosis factor-α (TNFα) (human) (UniProt P01375). Briefly: cell-based or functional assay.
human tumor necrosis factor-α (TNFα) (human), sequence (P01375 77-233): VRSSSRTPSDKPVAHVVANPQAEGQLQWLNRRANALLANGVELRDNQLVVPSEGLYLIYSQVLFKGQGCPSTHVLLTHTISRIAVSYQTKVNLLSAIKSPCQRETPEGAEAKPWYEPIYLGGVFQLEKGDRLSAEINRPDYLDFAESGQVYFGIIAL

“p55-sf2 (p55 TNF receptor / IgG1 heavy chain single fusion with truncated light chain JCK) (from UniProt P19438 32-188) (Fc fusion)” showed an amount needed for the same degree of inhibition of TNFβ cytotoxicity, against p75P-sf2 in assay [1] of 3 fold.

B1: p75-sf2 (complete p75 extracellular domain fused to the IgG1 heavy chain) (Fc fusion)
chain: QLPAQVAFTPYAPEPGSTCRLREYYDQTAQMCCSKCSPGQHAKVFCTKTSDTVCDSCEDSTYTQLWNWVPECLSCGSRCSSDQVETQACTREQNRICTCRPGWYCALSKQEGCRLCAPLRKCRPGFGVARPGTETSDVVCKPCAPGTFSNTTSSTDICRPHQICNVVAIPGNASMDAVCTSTSPTRSMAPGAVHLPQPVSTRSQHTQPTPEPSTAPSTSFLLPMGPSPPAEGSTGDGTLVTVSS
With B1, in assay [1], the “amount needed for the same degree of inhibition of TNFβ cytotoxicity, against p75P-sf2” value is 3 fold.

B2: chimeric mouse/human IgG1 anti-platelet mAb (7E3) (antibody, INN chains, looked up, V domains shown)
VH: EVQLQQSGTVLARPGASVKMSCEASGYTFTNYWMHWVKQRPGQGLEWIGAIYPGNSDTSYIQKFKGKAKLTAVTSTTSVYMELSSLTNEDSAVYYCTLYDGYYVFAYWGQGTLVTVSA
VL: EIVLTQSPVTLSVTPGDSVSLSCRASRDISNNLHWFQQTSHESPRLLIKYASQSMSGIPSRFSGSGSGTDFTLSINSVETEDFGMYFCQQTNSWPYTFGGGTKLEIK
modifications: chimeric IgG1
Take B2: in assay [2], the IL-6 secreted by FS-4 fibroblasts; 0.3 ng/ml rhTNF, 4 µg/ml antibody is 1.6 ng/mL; the IL-6 secreted by FS-4 fibroblasts; 1.5 ng/ml rhTNF, 4 µg/ml antibody came out at 1.96 ng/mL; the IL-6 secreted by FS-4 fibroblasts; 7.5 ng/ml rhTNF, 4 µg/ml antibody was 2.16 ng/mL.
